From patent publication US9493781B2, “Synthetic brassica-derived chloroplast transit peptides” (DOW AGROSCIENCES LLC, priority 2012, dated 2016)

How the values were obtained:
Arabidopsis [1] = assay: dgt-28, dgt-32, dgt-33, dgt-3, dgt-7 transformed Arabidopsis (T1, T2, T3) response to postemergence glyphosate, % visual injury; format: in vivo, Arabidopsis thaliana; settings: 14 days after application
How it was run: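 Transgenic T1, T2 and T3 Arabidopsis (low-copy events for T2/T3, hemizygous and homozygous in T2) sprayed postemergence with glyphosate at 105, 420, 1,680 or 3,360 g ae/ha. Visual injury scored 2 weeks after treatment as mean, SD and range. Non-transformed Columbia served as sensitive control.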

Arabidopsis [2] = assay: Heritability progeny test of T1 families (T2 plants) with glufosinate, Arabidopsis; format: in vivo, Arabidopsis thaliana; settings: progeny test of 100 T2 plants, glufosinate 200 g ae/ha
Description: Heritability. Confirmed transgenic T1 Arabidopsis events were self-pollinated to produce T2 seed. These seed were progeny tested by applying Ignite™ herbicide containing glufosinate (200 g ae/ha) to 100 random T2 siblings. […] The T1 families (T2 plants) segregated in the anticipated 3 Resistant: 1 Sensitive model for a dominantly inherited single locus with Mendelian inheritance as determined by Chi square analysis (P>0.05). […] Seed were collected from 5 to 15 T2 individuals (T3 seed). Twenty-five T3 siblings from each of 3-4 randomly-selected T2 families were progeny tested as previously described.

[3] = Table 8, T1 Arabidopsis, 105 g ae/ha glyphosate
[4] = Table 8, T1 Arabidopsis, 420 g ae/ha glyphosate
[5] = Table 8, T1 Arabidopsis, 1680 g ae/ha glyphosate
[6] = Table 8, T1 Arabidopsis, 3360 g ae/ha glyphosate
[7] = Table 10, T1 Arabidopsis, 1,680 g ae/ha glyphosate
[8] = Table 12, T2 Arabidopsis, 1 copy, 420 g ae/ha glyphosate
[9] = Table 12, T2 Arabidopsis, 1 copy, 840 g ae/ha glyphosate
[10] = Table 12, T2 Arabidopsis, 1 copy, 1680 g ae/ha glyphosate
[11] = Table 12, T2 Arabidopsis, 1 copy, 3360 g ae/ha glyphosate

B1: pDAB105532: TraP9 v2 -- dgt-28 v5: binary construct TraP9 v2: dgt-28 v5 (SEQ ID NO:35) (nucleic acid)
DNA: ATGGCACAAGCCAGCCGTATCTGCCAGAATCCATGTGTGATATCCAATCTCCCCAAAAGCAACCACCGTAAGTCCCCTTTCTCTGTCTCACTCAAGACGCATCAGCCTAGAGCCTCTTCATGGGGACTTAAGAAGTCTGGCACCATGCTGAACGGTTCAGTGATTAGACCCGTCAAGGTGACAGCTTCTGTTTCCGCAGCAAGAGGGATGCCAGCCTTGTCTTTACCTGGATCAAAGAGTATCACAGCTAGGGCACTCTTTCTTGCTGCTGCTGCTGATGGGGTTACTACTTTGGTGAGGCCATTGAGAAGTGACGACACAGAAGGATTCGCTGAGGGGTTAGTTCGTTTAGGCTATCGTGTAGGGAGGACACCCGATACTTGGCAAGTCGATGGCAGACCACAAGGACCAGCAGTGGCTGAGGCTGACGTCTACTGTAGAGACGGAGCAACCACCGCTAGATTCTTGCCAACCTTAGCAGCTGCTGGTCACGGAACATACAGATTTGATGCTTCACCACAGATGAGGAGACGTCCTCTTTTGCCCTTAAGCAGAGCCTTGAGGGATTTGGGTGTCGATCTTAGACACGAAGAAGCTGAAGGTCATCACCCTCTGACTGTCCGTGCTGCTGGGGTTGAAGGAGGAGAGGTTACTTTGGATGCTGGTCAGTCAAGTCAGTATCTCACTGCCTTGTTGCTCCTTGGTCCCCTTACAAGACAAGGACTGAGGATAAGGGTTACTGATTTGGTGTCAGCACCATACGTGGAGATTACGCTTGCAATGATGAGGGCTTTCGGAGTTGAAGTGGCAAGGGAGGGAGATGTGTTCGTTGTTCCACCTGGTGGATATCGTGCAACTACGTATGCTATAGAACCCGACGCAAGTACTGCTTCTTACTTCTTCGCAGCTGCTGCTTTGACTCCTGGAGCTGAAGTGACTGTACCTGGGTTAGGCACGGGAGCACTTCAAGGAGATTTGGGATTTGTAGATGTCTTAAGGAGAATGGGAGCCGAGGTGTCCGTAGGAGCTGATGCAACCACTGTTAGAGGAACTGGTGAATTGCGTGGCCTTACAGCCAACATGAGAGACATAAGTGATACGATGCCGACCCTCGCTGCAATAGCACCCTTTGCTAGTGCTCCAGTTAGAATCGAGGATGTTGCCAACACTCGTGTCAAAGAATGTGACAGACTTGAGGCTTGTGCAGAGAACCTTAGGAGGTTGGGAGTAAGGGTTGCAACGGGTCCGGACTGGATTGAGATACACCCTGGTCCAGCTACTGGTGCTCAAGTCACAAGCTATGGTGATCACAGAATTGTGATGTCATTTGCAGTGACTGGACTTCGTGTGCCTGGGATCAGCTTCGACGACCCTGGCTGTGTTCGTAAGACTTTTCCTGGGTTTCACGAGGCTTTCGCAGAATTGAGGCGTGGCATTGGGAGCTGA
modifications: In-frame fusion of dgt-28 v5 and TraP9 v2
In the case of B1, the “% Injury Ave” value (Arabidopsis [1]; [3]) is reported as 17.5%, the “% Injury Range (%)” value (Arabidopsis [1]; [3]) is reported as 0-60% and the “No. plants with 20-40% injury” value (Arabidopsis [1]; [3]) is reported as 0. For the same molecule, the “No. plants with <20% injury” value (Arabidopsis [1]; [3]) was 3, the “No. plants with >40% injury” value (Arabidopsis [1]; [3]) was 1 and the “% Injury Ave” value (Arabidopsis [1]; [4]) was 39.5%. The “% Injury Range (%)” value (Arabidopsis [1]; [4]) was 18-70%, the “No. plants with 20-40% injury” value (Arabidopsis [1]; [4]) was 1 and the “No. plants with <20% injury” value (Arabidopsis [1]; [4]) was 1. For the same molecule, the “No. plants with >40% injury” value (Arabidopsis [1]; [4]) was 2, the “% Injury Ave” value (Arabidopsis [1]; [5]) was 26.3% and the “% Injury Range (%)” value (Arabidopsis [1]; [5]) was 5-80%. For the same molecule, the “No. plants with 20-40% injury” value (Arabidopsis [1]; [5]) was 0, the “No. plants with <20% injury” value (Arabidopsis [1]; [5]) was 3 and the “No. plants with >40% injury” value (Arabidopsis [1]; [5]) was 1. The “% Injury Ave” value (Arabidopsis [1]; [6]) was 25.8%, the “% Injury Range (%)” value (Arabidopsis [1]; [6]) was 8-75% and the “No. plants with 20-40% injury” value (Arabidopsis [1]; [6]) was 0. For the same molecule, the “No. plants with <20% injury” value (Arabidopsis [1]; [6]) was 3, the “No. plants with >40% injury” value (Arabidopsis [1]; [6]) was 1 and the “% Injury Ave” value (Arabidopsis [1]; [7]) was 26.3%. The “% Injury Range (%)” value (Arabidopsis [1]; [7]) was 5-80%, the “No. plants with 20-40% injury” value (Arabidopsis [1]; [7]) was 0 and the “No. plants with <20% injury” value (Arabidopsis [1]; [7]) was 3. The “No. plants with >40% injury” value (Arabidopsis [1]; [7]) was 1, the “% Injury Ave” value (Arabidopsis [1]; [8]) was 2.0% and the “% Injury Range (%)” value (Arabidopsis [1]; [8]) was 0-8%. For the same molecule, the “No. plants with 20-40% injury” value (Arabidopsis [1]; [8]) was 0, the “No. plants with <20% injury” value (Arabidopsis [1]; [8]) was 4 and the “No. plants with >40% injury” value (Arabidopsis [1]; [8]) was 0. For the same molecule, the “% Injury Ave” value (Arabidopsis [1]; [9]) was 9.0%, the “% Injury Range (%)” value (Arabidopsis [1]; [9]) was 8-12% and the “No. plants with 20-40% injury” value (Arabidopsis [1]; [9]) was 0. For the same molecule, the “No. plants with <20% injury” value (Arabidopsis [1]; [9]) was 4, the “No. plants with >40% injury” value (Arabidopsis [1]; [9]) was 0 and the “% Injury Ave” value (Arabidopsis [1]; [10]) was 7.3%. The “% Injury Range (%)” value (Arabidopsis [1]; [10]) was 2-12%, the “No. plants with 20-40% injury” value (Arabidopsis [1]; [10]) was 0 and the “No. plants with <20% injury” value (Arabidopsis [1]; [10]) was 4. For the same molecule, the “No. plants with >40% injury” value (Arabidopsis [1]; [10]) was 0, the “% Injury Ave” value (Arabidopsis [1]; [11]) was 11.0% and the “% Injury Range (%)” value (Arabidopsis [1]; [11]) was 10-12%. For the same molecule, the “No. plants with 20-40% injury” value (Arabidopsis [1]; [11]) was 0, the “No. plants with <20% injury” value (Arabidopsis [1]; [11]) was 4 and the “No. plants with >40% injury” value (Arabidopsis [1]; [11]) was 0. For the same molecule, the “T1 Families Tested Segregating at 1 Locus (%)” value (Arabidopsis [2]) was 100%.
